Data as given in publication PMC10310011, “Accelerated absorption of regular insulin administered via a vascularizing permeable microchamber implanted subcutaneously in diabetic Rattus norvegicus” (PLOS ONE, 2023).

Details: rat, in vivo
From the text: Male athymic nude R. norvegicus between 9–12 weeks of age and weighing 250–350 g were purchased from Envigo (Livermore, CA, USA). Because estrogen interferes with streptozotocin [44] (see next), only male animals were included. Athymic nude rats were chosen to abrogate a possible antibody response against the human insulin to be injected. Animals were housed for a seven-day acclimatization period before initiating any experimental procedures. To avoid endogenous insulin in subject rats from cross-reacting in the human insulin assays, animals were rendered diabetic by a single intraperitoneal injection, 60 mg/kg, of streptozotocin (Sigma-Aldrich, St. Louis, MO, USA). Blood glucose concentrations were monitored daily using a Freestyle Lite Glucose Monitoring System (Abbott Diabetes Care Inc., Alameda, CA, USA). Rats were considered diabetic when blood glucose concentrations greater than 200 mg/dl were recorded on three consecutive days. Rats verified as diabetic were maintained with exogenous long-acting insulin (Lantus, Sanofi-Aventis, Bridgewater, NJ, USA) throughout the study; maintenance insulin treatment also serves to forestall insulin resistance. Maintenance insulin therapy was suspended for 24 hours prior to each insulin kinetics study. Two days after the initial insulin-kinetics assay two empty, 1.5 cm^2 per side, single-chamber (having a nominal internal volume of 22.5 μl), implantable vascularizing microchambers, IVMs (Procyon Technologies LLC, Tucson, AZ, USA) (Fig 1A) were implanted subcutaneously on the dorsal aspect of each rat. The initial insulin kinetics assays were performed 7 days after STZ induction of diabetes. […] Plasma samples collected from each insulin kinetics assay were analyzed for human insulin concentration using a commercial human insulin ELISA kit (Alpco, Salem, NH, USA). […] The measured insulin concentrations were converted from IU/ml to μg/ml according to the manufacturer’s recommended conversion ratios of 1 IU of human insulin = 6nmol = 34.8 μg of insulin. […] The mean and standard deviation (SD) for each category were then calculated. […]

insulin human
Plasma insulin curves after SC injection, diluted versus stock concentration: did not vary significantly
95% CI of Tmax (sc): 13.18 to 32.27 min
Tmax (mean peak time of plasma insulin) (sc): 22.7 min
